From PMC3068998

B1: SV2A: N498Q (protein)
parent chain: MEEGFRDRAAFIRGAKDIAKEVKKHAAKKVVKGLDRVQDEYSRRSYSRFEEEEDDDDFPAPADGYYRGEGAQDEEEGGASSDATEGHDEDDEIYEGEYQGIPRAESGGKGERMADGAPLAGVRGGLSDGEGPPGGRGEAQRRKDREELAQQYETILRECGHGRFQWTLYFVLGLALMADGVEVFVVGFVLPSAEKDMCLSDSNKGMLGLIVYLGMMVGAFLWGGLADRLGRRQCLLISLSVNSVFAFFSSFVQGYGTFLFCRLLSGVGIGGSIPIVFSYFSEFLAQEKRGEHLSWLCMFWMIGGVYAAAMAWAIIPHYGWSFQMGSAYQFHSWRVFVLVCAFPSVFAIGALTTQPESPRFFLENGKHDEAWMVLKQVHDTNMRAKGHPERVFSVTHIKTIHQEDELIEIQSDTGTWYQRWGVRALSLGGQVWGNFLSCFSPEYRRITLMMMGVWFTMSFSYYGLTVWFPDMIRHLQAVDYAARTKVFPGERVEHVTFNFTLENQIHRGGQYFNDKFIGLRLKSVSFEDSLFEECYFEDVTSSNTFFRNCTFINTVFYNTDLFEYKFVNSRLVNSTFLHNKEGCPLDVTGTGEGAYMVYFVSFLGTLAVLPGNIVSALLMDKIGRLRMLAGSSVLSCVSCFFLSFGNSESAMIALLCLFGGVSIASWNALDVLTVELYPSDKRTTAFGFLNALCKLAAVLGISIFTSFVGITKAAPILFASAALALGSSLALKLPETRGQVLQ
B2: SV2A: N548Q (protein)
parent chain: B1 parent chain

Settings: glycan lost

Protein	other: toxin entry into neurons
B1	no change
B2	no change
